# According to the DeepSol protein solubility set:
# Assay: soluble on expression in E. coli; label from the status in PepcDB or PDB records
row,Sequence,soluble on expression in E. coli
1,MSLAYISLKSNLENPKYSLNVAHLYGDLMNTYGDNGNILMLKYVGEKLGAEMTFNIVSLGDTFAKEDYDLVFWGGGQDYEQEIIADQSLIDLSAPLKDYIESEKPLLAICGGYQMLGQYYVNSEGTKIQGTGILGHYTENLRTDRFIGDIETHNEEFGETYYGFENHSGITYLSDDEKPLGTVVYGGGNNPDDQTEGLIYKNTFGTYFHGPILSRNARLAYRLVTTALYQKYGEEIQLPAFEEILADEDKGQQIGDLKRKVEKEGHHHHHH,soluble
2,MRWAPVTYTVGSSSVGSFPAVQWRGINTPTQIVFSLSSSEVRSYRLRIFVPLAQVSARPQIAVNARWNGPVPAAPNQPKTRGITRGTTRGNNTLCEVDIPATALQAGSNRIAISLASGSPDNGFLSPAIVYDSVQLVAPLEHHHHHH,not soluble
3,MAHHHHHHSLMLKKNDIIQVAISDLSHEGAGVAKHDGFVFFVDNALPEEVIDMRVLKVNKNSGFGKVEAYHYLSSARNADVNLTYLRTGIADLGHLTYEDQLTFKKKQVQDSLYKIAGISDVTVESTIGMTEPLAYRNKAQVPVRRVNGQLETGFFRKHSHDLIPISDYYIQDKEIDRLINFTRDLLRRFDIKPYDETEQTGLLRNIVVRRGHYSGEMMLVLVTTRPKVFRVDQVIEKIVEAFPAVVSIIQNINDKNTNAIFGKDFKTLYGKDTITDSMLGNNYAISAQSFYQVNTVMAEKLYQTAIAFSDLSKDDIVIDAYSGIGTIGLSFAKTVKAVYGVEVIEAAVRDAQQNAALNGITNAYFVADTAEHAMATWAKDGIKPSVILVDPPRKGLTESFIQASVAMGPQKITYVSCNPATMARDIKRYQELGYKLAKVQPVDLFPQTHHVECVVLLIKEEG,not soluble
4,MYKPKNINSVLTFYKDQIQLVVSDDQNQFNILFYQTIDNDGFYSKQQLKNKLRLKLALNQLVDQANYFLGFKLEKVVVVLAELIDDLKIHNFKSEIFFTGYDFDHKAMIKKEKQRFCEQNNQLTVMDTMVLNYHDVINNKITKSFAFNKSYVANLVAYSSKSNLIGELKFFLKRNVNLKVKKIISHHLALANSLSKKQNNMFVYLGQKTTELMLFMDNALVDVITNQFGKNHFIDIPANQENKPLLEFLVDNTTKIGDCYSLGMTYTDGDSYKEIKALTIGDLMQTVSDKIKTLIDFINSGSLTFFNKFKTLPKLLYFYTRSKQITNLFQANVALINPQFKTVDIYKNKIQFISENYLLSCEAISLQITNRIKNQISFDFTNADNIQKPKPKKHFMILSKHLTKFVQRLVK,soluble
5,MGSDKIHHHHHHMTPTLPDRKQNPPSAPAATVSLRLLEIFMLVAQEGSVSAAANRLNLTQAAVSQAITVLEQALDVKLLDRSVRPPLLTLRGSTALQYAREILAKVHEFEDAMRYSGSGRVPLLRIGMLNSFASTAGAFVLNQLRDIAAEWTVASGFRETCIQALLDRQSDVIITTDETPAPSEIEVFPIFSEPFVAVVPASFDGKTERLQDIADKLDFIHYGHDSHMGSKITNYLKKIGTVPARRYQFDTTDAALHMVAGGFGWAIVTPLIYLKSRVEGSGVRVVPLTRLPIHRTFIVGMRRGEGSDIAQRVRTAAIITLRDVILPQIEAVLPEASKGVSVAEIEPKASTGKRKGSRRDSAGS,not soluble
6,MTTILTYPFKNLPTASKWALRFSIRPLSCSSQLRAAPAVQTKTKKTLAKPNIRNVVVVDGVRTPFLLSGTSYKDLMPHDLARAALTGLLHRTSVPKEVVDYIIFGTVIQEVKTSNVAREAALGAGFSDKTPAHTVTMACISANQAMTTGVGLIASGQCDVIVAGGVELMSDVPIRHSRKMRKLMLDLNKAKSMGQRLSLISKFRFNFLAPELPAVSEFSTSETMGHSADRLAAAFAVSRLEQDEYALRSHSLAKKAQDEGLLSDVVPFKVPGKDTVTKDNGIRPSSLEQMAKLKPAFIKPYGTVTAANSSFLTDGASAMLIMAEEKALAMGYKPKAYLRDFMYVSQDPKDQLLLGPTYATPKVLEKAGLTMNDIDAFEFHEAFSGQILANFKAMDSDWFAENYMGRKTKVGLPPLEKFNNWGGSLSLGHPFGATGCRLVMAAANRLRKEGGQYGLVAACAAGGQGHAMIVEAYPK,not soluble
7,MGSDKIHHHHHHMMSFREDKLLATNVPMRIVSLISKINEYKGKQVLYNQQAPEVLNTLKNVAIIQSTRASNSLEGITIKDTRLIDIMQNKVQPANRSEGEIAGYRDVLATIHSSYDAIPVKPSILLQFHRDLYRFISLEGGSWKNSDNAIEEVYPDGSKFVRFNPVSSFATPGAIEELCKFYNQYSNSGEIDSLMLISATILDFLCIHPFCDGNGRMARLLTLLLLYKEGYEVGRFISLEQIIEESKDAYYDTLYQSSQNWHEGKHDLLIWSEYLLGIILAAYKELMDRVGKVSRARGNKAMRVEETIDHFVSNFSINDIRRRCPDISPSTINRVLAKLRDANKIEVLGIGRGAKWKKNY,not soluble
8,MNYTTEFKLGTDGLDVVPGATNTFEMPEGVIPSANATVYFYSGGMPESATANYTGAGNLWSFTSTNGIDSSAGAIRVEITQGRNFGDDPGLVTATATTRAWNEPPLVTVDQSVSGETKFAFSIPVGKPGNDGISAYAQAHAQGFNGSVDDWLESLRGANGKSAYELAVTQGFQGSSADWLNSLKGATGKSAYEVAVAQGFTGALAEWVESLKGVAGKSAYDIALDAGYKGSHLDWLNSLKGGKGDKGDHGKSAYQVAFDAGFSGTEAEWLESLKAPSAPAVGGYKELANGVLWYCRPRYNTGRCTVPDTGWGAYDYETAEHTTKFVIEDGLFEDHGCYVVPDASNLPTDDLRLRMTRGVNRGIHHAGRMTNRSDLVPPYSATTSYFIDRWAAKFYGWYYVMLSPQESAQFLADTDLEKIEVDVQPVTFSGVDVTNWAPGGTETYFLAKEQGLLVPIYKGASRHTVSATGETIVALWFRVGVYTHRSNIGSDNHSFDGINGEPDGWNLHDVDVKFWSTNVAQGMKFSAKIRN,not soluble
9,SWYIEEDLEKVNSNYFEEKDYELCRNELETTILDSVMKRVKGLEKVGIIYSGGVDSTLISKLASEYCEVILYSVGSENSEDLIYAERAAKDMGLDFRKKIISEDEFEEYVVKVAKAIDELDVMKLSVGIPILAASEMAKEDGIKVLLSGQGADELFAGYNRYQRILNEKGEDGLKESIISDVFDIHKINLERDDHCTMANGVELRVPFLDKFVIDVGLSIPVEYKIEEPRKKILRDIASKYVPDYIAQRPKKAAQYGSGSEKM,not soluble
10,MGHHHHHHSHMEYHTMIRELILDGSLQLIQEGLKSGFLYPLFEKQDKGSKPITLPLDACSLSELCEMAKHLPSLNEMEHQTLQLVEEDTSVTEQDLFLRVVENNSSFTKVITLMGQKYLLPPKSSFLLSDISCMQPLLNYRKTFDVIVIDPPWQNKSVKRSNRYSYLSPLQIQQIPIPKLAAPNCLLVTWVTNRQKHLRFIKEELLSLLVCGGSC,not soluble
11,MSLAFDTLFLNARFDGGTRHHIAVKDGRIAAITSVDQPPAGAETIDLKDALVVPGFVEGHIHLDTSFYGDAWRPHKPCADGFNVHERVAFQAQNMAEAAPMDVRARNQLDLCIGHGTTQMRSHVIVDGSVGLKSLETILRVREEYNGLIDIQLVAFPQSGILSSPGTAQLLDEAIGLGANLVGGLDPASFDRDVEKHLDVVFGVANKHGVDIDIHLHDMGTLGAFEIEQIAARTRALGMEGRVAVSHAYGLGDIPADYLKKVAEILARSGVAIMTNAPGARPFPPILALRNAGVTVFSGNDNIRDSWWPYGDGDMLRRATTLGYRSGFNIDEELRAAFDVVTASGAKALRLEGYGLRIGAKADFVALNAEHVPEAVVAVPQGRSVYKDGRLVAANGRIVGKSGEGHHHHHH,not soluble
12,MTFLLKSCSTFFEKFCCCCKKYESEWNTQLESISLFAARRGFTDGEPYLILFGLCPNANKTFIVSENKLSDSNICLGDFLVACSDSPKNLKNFKKVPYPLDVTVEGDYAIISYSSMEAIKDISGILIFQTTDFGPIRSLNQNLDLDEYNITVHATGVSASGHVIELRAKAQPASNYRNSSVYENPSFLDDLSDEPLEIKKTISNNSLDGFSMEQLIQQLPTLELGEAENSVRVPQNLSAPRLMKAFVYSVHQYPHTKFHFLWICDIMEKSILKLPQYDFELGYFFEGIFKQKSNGKWECEQYNNKIEPLINGTVVINEYNGNEKVELTTTVTNYKPKNNTRKWPEVEAKYLGVVYDRHNKLPKNCEGQKVEVQMMKIDKEQYGWVITDILNE,not soluble
13,MAHHHHHHMPSVATASTRAVLAYPTDDAKLLVELTPTDRVAGGGSCGGFSGGGPMTQSDLGVGGSRMLQSLLVTRNVRDHLLDLRFSEAALSAQVTLQGDTVRDLIADITAAQSTEVSIRIDPKVGVILRGEGGPYGEVEAHVHATSEALLSLSREQSASTRVYTHHLALACGARGGTGGGGSSGSSAGAGGTGGGRLRGTGASVRDGRLSNADYILMGLAASAAGAGSSGGGGGAAVGTLFGGFERLTLQINAQRQLSVLHTQRDHELKVFVTVVVMPLSSVCDML,not soluble
14,MDIVQLGPAELKAWMDEGRMFCLLDVRTDEETAVCSLPNALHIPMNLIPLRQNELPDDVPLVVYCHHGIRSLHTAMYLADAGFENLYNLQGGIDAWAAEIDGNMMRY,not soluble
15,MGEETINSTQNKTRTKTTRPKAVYLWTVSDVLKWYRRHCGEYTQYEQLFAQHDITGRALLRITDSSLQRMGVTDNRDREAIWREIVKQRLKTDIMEIRDMERLNIY,soluble
16,MSLQTCVLHRLSLPLKFPMRTAHGHIREKQAILVQLVDADGIEGWSECVALAEPTYTEECTDTAWVMLVHHLVPRFARWLRAASQDQDVDPRTVCEALRDVRGNRMSVAAIEMAVWDWYAARTGQPLVGLLGGGRDRVEVSATLGMSESLDVLIQSVDAAVEQGFRRVKLKIAPGRDRAAIKAVRLRYPDLAIAADANGSYRPEDAPVLRQLDAYDLQFIEQPLPEDDWFDLAKLQASLRTPVCLDESVRSVRELKLTARLGAARVLNVKPGRLGGFGATLRALDVAGEAGMAAWVGGMYETGVGRVHGLIAAALPLMRYATDLGPSDRYFEQDVLKEPIAFVEPGVIQVPQCAGVADWVDRDAVRRFSTATWSVDLRTLEGHHHHHH,soluble
17,MQEYTNHSDTTFALRNISFRVPGRTLLHPLSLTFPAGKVTGLIGHNGSGKSTLLKMLGRHQPPSEGEILLDAQPLESWSSKAFARKVAYLPQQLPPAEGMTVRELVAIGRYPWHGALGRFGAADREKVEEAISLVGLKPLAHRLVDSLSGGERQRAWIAMLVAQDSRCLLLDEPTSALDIAHQVDVLALVHRLSQERGLTVIAVLHDINMAARYCDYLVALRSGEMIAQGTPAEIMRGETLEMIYGIPMGILPHPAGAAPVSFVY,not soluble
18,MDLLERLGLGGRRVLILHHDDLGLTHAQNGAYQALGLPTGSVMVPGAWASGVKGEDLGVHLVLTSEWPAPRMRPLTEGESLRDEAGYFPESLEALWRKARAEEVERELKAQIQAAAKLFSPTHLDAHQGAVLRPDLAEVYLRLAEAYRLVPLVPESLEGLGVPPPFLPELERLLYETPFPQVRFLDPYGLPPEERLGFYLDLAHLPPGLYYLVHHSALPTPEGRALPDWPTREADYFALSHPEVRRVLAEFHPLTWRAVREALF,soluble
19,MMPNEKITLKQLIDHCFDTTKTTIKQQIVFGAGKIENKNFNIVGTVEDTSFGVDESIEMARCILDIIKNNNTDPIVLLTDVAGQKLAVRDEWLGMYAYFAHLLKCLHLARQNGNKIITLIYNQAIGGSFIAFGMMADRIYALKNAKLAVMWLEGMSKVTKIDIDVLRKISETSPVFAPGVENFKKLGGLHQVLDLDEVSQQLLLTLQEPNISHDNRAELGKQYGGRKEAYDIIKAIENL,not soluble
20,MKVMLSLFKRESIKGITMKKSTLLNSELSYLVATLGHTDEITICDAGLPIPDEVTRIDLALTHGVPSFLETVRVILSESQIESVIVAQEFAQVSPVLHEALYRELKAEEQLCGKPIAIQYISHEAFKQRTLQSRAVVRTGECTPYANVIFQAGVVF,not soluble
